According to paper doi:10.1101/2020.01.12.903617, “The peptide sensor motif stabilizes the outward-facing conformation of TmrAB” (bioRxiv, 2020):
No end group written: not given here. fluorescein = fluorescein label attached to the Cys side chain

Columns and labels:
TmrAB D125A^TmrB = biological target: T1, TmrAB D125A^TmrB (Thermus thermophilus, UniProt Q72J05 1-600; Q72J04 1-578, D125A); assay: fluorescence polarisation; 1.7 uM TmrAB with 50 nM RRY(C^Fluorescein)KSTEL in SEC buffer (20 mM HEPES, 150 mM NaCl, pH 7, 0.05% ß-DDM), 15 minutes on ice, in the absence or presence of 5 mM ATP and 10 mM MgCl2; read at 25°C (the results say 4°C); signal normalized to WT without ATP; conditions: both partners purified
T1 construct: TmrA, Thermus thermophilus, the chain of TmrAB with the canonical Walker B motif; TmrB, Thermus thermophilus, the chain of TmrAB with the non-canonical Walker B motif; also called D125A^TmrB variant
T1 sequence 1: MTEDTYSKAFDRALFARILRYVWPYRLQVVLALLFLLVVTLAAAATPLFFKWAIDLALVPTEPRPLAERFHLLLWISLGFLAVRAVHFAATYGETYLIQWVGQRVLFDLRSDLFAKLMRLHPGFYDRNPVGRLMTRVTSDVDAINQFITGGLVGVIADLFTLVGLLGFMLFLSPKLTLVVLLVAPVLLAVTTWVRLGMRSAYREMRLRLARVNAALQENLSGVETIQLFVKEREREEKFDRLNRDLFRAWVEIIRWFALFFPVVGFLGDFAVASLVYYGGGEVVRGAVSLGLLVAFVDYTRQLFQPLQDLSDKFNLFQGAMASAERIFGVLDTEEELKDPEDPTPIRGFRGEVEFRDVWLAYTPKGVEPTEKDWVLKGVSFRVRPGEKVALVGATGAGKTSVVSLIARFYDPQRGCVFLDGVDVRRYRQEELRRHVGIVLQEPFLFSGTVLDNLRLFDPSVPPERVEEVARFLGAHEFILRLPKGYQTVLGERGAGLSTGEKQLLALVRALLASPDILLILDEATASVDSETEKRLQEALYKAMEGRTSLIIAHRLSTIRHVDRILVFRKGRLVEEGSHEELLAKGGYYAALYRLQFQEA
T1 sequence 2: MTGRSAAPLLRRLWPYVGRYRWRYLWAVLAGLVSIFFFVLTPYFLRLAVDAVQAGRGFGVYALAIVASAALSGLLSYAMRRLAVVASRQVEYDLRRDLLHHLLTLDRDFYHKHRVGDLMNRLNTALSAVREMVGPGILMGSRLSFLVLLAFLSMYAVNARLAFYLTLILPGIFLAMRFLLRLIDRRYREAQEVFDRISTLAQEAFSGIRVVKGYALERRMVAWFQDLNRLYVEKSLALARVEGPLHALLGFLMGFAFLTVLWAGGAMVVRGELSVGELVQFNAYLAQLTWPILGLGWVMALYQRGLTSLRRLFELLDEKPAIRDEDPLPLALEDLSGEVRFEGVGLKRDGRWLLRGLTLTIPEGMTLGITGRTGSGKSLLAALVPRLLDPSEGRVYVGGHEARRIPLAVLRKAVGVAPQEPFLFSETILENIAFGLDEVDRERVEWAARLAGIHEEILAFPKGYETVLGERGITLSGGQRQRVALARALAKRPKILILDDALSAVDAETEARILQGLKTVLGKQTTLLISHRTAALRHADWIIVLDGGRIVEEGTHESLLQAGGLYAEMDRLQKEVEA

TmrAB G116A^TmrB = biological target: T2, TmrAB G116A^TmrB (Thermus thermophilus, UniProt Q72J05 1-600; Q72J04 1-578, G116A); assay: as above; conditions: both partners purified
T2 construct: TmrA, Thermus thermophilus, the chain of TmrAB with the canonical Walker B motif; TmrB, Thermus thermophilus, the chain of TmrAB with the non-canonical Walker B motif
T2 sequence 1: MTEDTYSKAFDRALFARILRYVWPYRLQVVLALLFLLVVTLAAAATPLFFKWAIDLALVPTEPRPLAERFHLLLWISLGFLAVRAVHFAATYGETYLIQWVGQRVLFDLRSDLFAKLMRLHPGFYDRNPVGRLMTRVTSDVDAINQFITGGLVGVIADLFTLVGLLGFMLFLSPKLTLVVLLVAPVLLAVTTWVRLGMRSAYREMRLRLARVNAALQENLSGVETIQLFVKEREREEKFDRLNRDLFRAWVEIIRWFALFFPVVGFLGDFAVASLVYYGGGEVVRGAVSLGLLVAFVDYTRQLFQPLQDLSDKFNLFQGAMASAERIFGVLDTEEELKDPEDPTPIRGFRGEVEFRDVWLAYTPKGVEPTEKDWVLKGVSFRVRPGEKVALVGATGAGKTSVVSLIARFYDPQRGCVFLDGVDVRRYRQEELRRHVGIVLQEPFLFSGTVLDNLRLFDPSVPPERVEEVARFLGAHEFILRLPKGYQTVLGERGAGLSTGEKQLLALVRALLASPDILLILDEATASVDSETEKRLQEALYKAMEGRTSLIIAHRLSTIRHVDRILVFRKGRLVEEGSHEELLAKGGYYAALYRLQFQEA
T2 sequence 2: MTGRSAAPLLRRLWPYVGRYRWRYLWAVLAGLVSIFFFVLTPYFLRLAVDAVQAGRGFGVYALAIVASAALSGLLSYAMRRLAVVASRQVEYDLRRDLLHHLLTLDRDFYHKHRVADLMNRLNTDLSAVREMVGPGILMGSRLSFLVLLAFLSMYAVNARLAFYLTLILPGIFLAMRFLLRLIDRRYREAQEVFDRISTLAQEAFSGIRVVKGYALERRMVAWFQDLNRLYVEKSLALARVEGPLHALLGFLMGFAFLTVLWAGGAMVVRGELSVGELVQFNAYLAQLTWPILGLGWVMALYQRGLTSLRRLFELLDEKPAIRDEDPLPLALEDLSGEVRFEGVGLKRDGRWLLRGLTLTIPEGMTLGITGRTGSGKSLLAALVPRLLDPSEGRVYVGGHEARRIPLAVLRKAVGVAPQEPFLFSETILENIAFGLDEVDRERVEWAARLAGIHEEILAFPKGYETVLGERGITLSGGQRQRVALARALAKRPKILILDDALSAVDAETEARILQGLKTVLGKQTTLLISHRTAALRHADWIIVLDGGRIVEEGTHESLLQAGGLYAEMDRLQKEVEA

B1: fluorescent transport substrate peptide RRY(C^Fluorescein)KSTEL (peptide)
peptide: RRYC(fluorescein)KSTEL
notes: fluorescein-labelled transport substrate peptide of TmrAB; also called fluorescently-labeled peptide substrate; peptide substrate; source: bought: Genscript
- binding result (TmrAB D125A^TmrB): binds
- binding result (TmrAB G116A^TmrB): binds
